{
  "source": "patent US20210363254A1",
  "about": "(Novartis, published 2021)",
  "binders": {"B1": {"name": "BAP049-hum13 (antibody, human IgG4 S228P, kappa)", "heavy chain": "not shown", "light chain": "DVVMTQSPLSLPVTLGQPASISCKSSQSLLDSGNQKNFLTWYQQKPGKAPKLLIYWASTRESGVPSRFSGSGSGTDFTFTISSLEAEDAATYYCQNDYSYPYTFGQGTKVEIKRTVAAPSVFIFPPSDEQLKSGTASVVCLLNNFYPREAKVQWKVDNALQSGNSQESVTEQDSKDSTYSLSSTLTLSKADYEKHKVYACEVTHQGLSSPVTKSFNRGEC", "notes": "also called clone 13"}, "B2": {"name": "BAP049-hum02 (antibody, human IgG4 S228P, kappa, V domains shown)", "VH": "EVQLVQSGAEVKKPGESLRISCKGSGYTFTTYWMHWVRQATGQGLEWMGNIYPGTGGSNFDEKFKNRVTITADKSTSTAYMELSSLRSEDTAVYYCTRWTTGTGAYWGQGTTVTVSS", "VL": "DIQMTQSPSSLSASVGDRVTITCKSSQSLLDSGNQKNFLTWYQQKPGQAPRLLIYWASTRESGIPPRFSGSGYGTDFTLTINNIESEDAAYYFCQNDYSYPYTFGQGTKVEIKR", "notes": "also called clone 2"}, "B3": {"name": "BAP049-hum03 (antibody, human IgG4 S228P, kappa, V domains shown)", "VH": "EVQLVQSGAEVKKPGESLRISCKGSGYTFTTYWMHWIRQSPSRGLEWLGNIYPGTGGSNFDEKFKNRFTISRDNSKNTLYLQMNSLRAEDTAVYYCTRWTTGTGAYWGQGTTVTVSS", "VL": "B2 VL", "notes": "also called clone 3"}, "B4": {"name": "BAP049-hum12 (antibody, human IgG4 S228P, kappa, V domains shown)", "VH": "B2 VH", "VL": "DIQMTQSPSSLSASVGDRVTITCKSSQSLLDSGNQKNFLTWYLQKPGQSPQLLIYWASTRESGVPSRFSGSGSGTDFTFTISSLEAEDAATYYCQNDYSYPYTFGQGTKVEIKR", "notes": "also called clone 12"}, "B5": {"name": "BAP049-hum16 (antibody, human IgG4 S228P, kappa, V domains shown)", "VH": "B3 VH with I37V, S40A, S42G, R43Q, L48M", "VL": "EIVLTQSPDFQSVTPKEKVTITCKSSQSLLDSGNQKNFLTWYQQKPGQAPRLLIYWASTRESGVPSRFSGSGSGTDFTFTISSLEAEDAATYYCQNDYSYPYTFGQGTKVEIKR", "notes": "also called clone 16"}, "B6": {"name": "BAP049-hum10 (antibody, human IgG4 S228P, kappa)", "heavy": "not shown", "light": "EIVLTQSPATLSLSPGERATLSCKSSQSLLDSGNQKNFLTWYQQKPGQAPRLLIYWASTRESGVPSRFSGSGSGTDFTFTISSLEAEDAATYYCQNDYSYPYTFGQGTKVEIKRTVAAPSVFIFPPSDEQLKSGTASVVCLLNNFYPREAKVQWKVDNALQSGNSQESVTEQDSKDSTYSLSSTLTLSKADYEKHKVYACEVTHQGLSSPVTKSFNRGEC", "notes": "also called humanized BAP049 clone hum10"}, "B7": {"name": "BAP049-hum15 (antibody, human IgG4 S228P, kappa)", "heavy chain": "not shown", "light chain": "B6 light with A9D, T10F, L11Q, L13V, S14T, G16K, R18K, A19V, L21I, S22T", "notes": "also called clone 15"}, "B8": {"name": "BAP049-hum11 (antibody, human IgG4 S228P, kappa)", "heavy": "not shown", "light": "B6 light", "notes": "also called humanized BAP049 clone hum11"}, "B9": {"name": "BAP049-hum09 (antibody, human IgG4 S228P, kappa)", "heavy": "not shown", "light": "B6 light with A9D, T10F, L11Q, L13V, S14T, G16K, R18K, A19V, L21I, S22T", "notes": "also called humanized BAP049 clone hum09"}, "B10": {"name": "BAP049-hum01 (antibody, human IgG4 S228P, kappa, V domains shown)", "VH": "B2 VH", "VL": "EIVLTQSPATLSLSPGERATLSCKSSQSLLDSGNQKNFLTWYQQKPGQAPRLLIYWASTRESGVPSRFSGSGSGTEFTLTISSLQPDDFATYYCQNDYSYPYTFGQGTKVEIKR", "notes": "Humanized anti-PD-1 mAb; also called humanized BAP049 clone hum01"}, "B11": {"name": "BAP049-hum07 (antibody, human IgG4 S228P, kappa)", "heavy chain": "not shown", "light chain": "B6 light with Q48K, R51K", "notes": "also called clone 7"}, "B12": {"name": "BAP049-hum08 (antibody, human IgG4 S228P, kappa)", "heavy": "not shown", "light": "B6 light with A9D, T10F, L11Q, L13V, S14T, G16K, R18K, A19V, L21I, S22T", "notes": "also called humanized BAP049 clone hum08"}, "B13": {"name": "BAP049-hum05 (antibody, human IgG4 S228P, kappa, V domains shown)", "VH": "B2 VH", "VL": "B10 VL with Q48K, R51K, E76D, L79F, D87E, F89I", "notes": "also called humanized BAP049 clone hum05"}, "B14": {"name": "BAP049-hum04 (antibody, human IgG4 S228P, kappa, V domains shown)", "VH": "B3 VH", "VL": "B10 VL with Q48K, R51K, E76D, L79F, D87E, F89I", "notes": "also called clone 4"}, "B15": {"name": "BAP049-hum06 (antibody, human IgG4 S228P, kappa)", "heavy chain": "not shown", "light chain": "B1 light chain with V2I, S7T, L15P, Q17E, K48Q, K51R", "notes": "also called clone 6"}, "B16": {"name": "BAP049-hum14 (antibody, human IgG4 S228P, kappa)", "heavy chain": "not shown", "light chain": "B6 light", "notes": "also called clone 14"}, "B17": {"name": "Chi mAb (Tyr) (antibody, human IgG4 S228P, kappa, V domains shown)", "VH": "QVQLQQSGSELVRPGASVKLSCKASGYTFTTYWMHWVRQRPGQGLEWIGNIYPGTGGSNFDEKFKNRTSLTVDTSSTTAYMHLASLTSEDSAVYYCTRWTTGTGAYWGQGTTVTVSS", "VL": "DIVMTQSPSSLTVTAGEKVTMSCKSSQSLLDSGNQKNFLTWYQQKPGQPPKLLIFWASTRESGVPDRFTGSGSVTDFTLTISSVQAEDLAVYYCQNDYSYPYTFGQGTKVEIKR", "notes": "also called BAP049-chi-Y; Chi (Tyr)"}, "B18": {"name": "Mu mAb (antibody, V domains shown)", "VH": "B17 VH with T112L, S117A", "VL": "DIVMTQSPSSLTVTAGEKVTMSCKSSQSLLDSGNQKNFLTWYQQKPGQPPKLLIFWASTRESGVPDRFTGSGSVTDFTLTISSVQAEDLAVYYCQNDYSYPCTFGGGTKLEIK", "notes": "also called murine mAb BAP049; murine anti-PD-1 mAb BAP049"}},
  "note": "Positions count from the first letter of the chain named.",
  "data": [
    {"biological_target": "T1, Programmed Death 1 (PD-1) (UniProt Q15116 25-288, limits assumed)", "T1 sequence (Q15116 25-288 limits assumed)": "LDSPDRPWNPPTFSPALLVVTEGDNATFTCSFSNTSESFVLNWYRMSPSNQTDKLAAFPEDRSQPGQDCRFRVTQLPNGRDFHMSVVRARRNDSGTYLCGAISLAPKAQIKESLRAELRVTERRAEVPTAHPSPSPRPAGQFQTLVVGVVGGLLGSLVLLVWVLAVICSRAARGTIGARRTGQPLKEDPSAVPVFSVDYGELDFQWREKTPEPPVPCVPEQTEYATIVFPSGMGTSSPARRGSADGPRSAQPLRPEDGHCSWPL", "assay": "rank of the clone among the humanized BAP049 clones by FACS data", "values": [
      {"binder": "B1", "Ranking, FACS data": 6},
      {"binder": "B2", "Ranking, FACS data": 6},
      {"binder": "B3", "Ranking, FACS data": 7},
      {"binder": "B4", "Ranking, FACS data": 3},
      {"binder": "B5", "Ranking, FACS data": 15},
      {"binder": "B6", "Ranking, FACS data": 7},
      {"binder": "B7", "Ranking, FACS data": 6},
      {"binder": "B8", "Ranking, FACS data": 6},
      {"binder": "B9", "Ranking, FACS data": 7},
      {"binder": "B10", "Ranking, FACS data": 2},
      {"binder": "B11", "Ranking, FACS data": 4},
      {"binder": "B12", "Ranking, FACS data": 7},
      {"binder": "B13", "Ranking, FACS data": 5},
      {"binder": "B14", "Ranking, FACS data": 14},
      {"binder": "B15", "Ranking, FACS data": 1},
      {"binder": "B16", "Ranking, FACS data": 16}
    ]},
    {"biological_target": "T1, Programmed Death 1 (PD-1)", "assay": "FACS, blocking of ligand-Ig binding to PD-1, MFI of bound ligand against mAb concentration; legend paragraph 53 names 'PD-LI-Ig and PD-L2-Ig' for FIG. 8A; cells not named", "units": {"IC50 (read off the curve)": "µg/mL"}, "values": [
      {"binder": "B17", "IC50 (read off the curve)": "~0.9"},
      {"binder": "B18", "IC50 (read off the curve)": "~0.7"},
      {"binder": "B6", "IC50 (read off the curve)": "~1"},
      {"binder": "B10", "IC50 (read off the curve)": "~1"},
      {"binder": "B13", "IC50 (read off the curve)": "~1"}
    ]},
    {"biological_target": "T1, Programmed Death 1 (PD-1)", "assay": "rank of the clone by competition binding against labelled murine mAb BAP049, first experiment (legends paragraph 52)", "values": [
      {"binder": "B1", "Competition Binding, 1st exp. (rank)": 1},
      {"binder": "B2", "Competition Binding, 1st exp. (rank)": 3},
      {"binder": "B3", "Competition Binding, 1st exp. (rank)": 8},
      {"binder": "B4", "Competition Binding, 1st exp. (rank)": 8},
      {"binder": "B5", "Competition Binding, 1st exp. (rank)": 16},
      {"binder": "B6", "Competition Binding, 1st exp. (rank)": 6},
      {"binder": "B7", "Competition Binding, 1st exp. (rank)": 7},
      {"binder": "B8", "Competition Binding, 1st exp. (rank)": 4},
      {"binder": "B9", "Competition Binding, 1st exp. (rank)": 2},
      {"binder": "B10", "Competition Binding, 1st exp. (rank)": 7},
      {"binder": "B11", "Competition Binding, 1st exp. (rank)": 7},
      {"binder": "B12", "Competition Binding, 1st exp. (rank)": 7},
      {"binder": "B13", "Competition Binding, 1st exp. (rank)": 5},
      {"binder": "B14", "Competition Binding, 1st exp. (rank)": 15},
      {"binder": "B15", "Competition Binding, 1st exp. (rank)": 7},
      {"binder": "B16", "Competition Binding, 1st exp. (rank)": 7}
    ]},
    {"biological_target": "T1, Programmed Death 1 (PD-1)", "assay": "rank of the clone by competition binding against labelled murine mAb BAP049, second experiment (legends paragraph 52); footnote: empty boxes means worse than 4", "values": [
      {"binder": "B1", "Competition Binding, 2nd exp. (rank)": 1},
      {"binder": "B2", "Competition Binding, 2nd exp. (rank)": 2},
      {"binder": "B3", "Competition Binding, 2nd exp. (rank)": 14},
      {"binder": "B4", "Competition Binding, 2nd exp. (rank)": 16},
      {"binder": "B5", "Competition Binding, 2nd exp. (rank)": 15},
      {"binder": "B6", "Competition Binding, 2nd exp. (rank)": "> 4"},
      {"binder": "B7", "Competition Binding, 2nd exp. (rank)": 15},
      {"binder": "B8", "Competition Binding, 2nd exp. (rank)": "> 4"},
      {"binder": "B9", "Competition Binding, 2nd exp. (rank)": 4},
      {"binder": "B10", "Competition Binding, 2nd exp. (rank)": 2},
      {"binder": "B11", "Competition Binding, 2nd exp. (rank)": "> 4"},
      {"binder": "B12", "Competition Binding, 2nd exp. (rank)": 4},
      {"binder": "B13", "Competition Binding, 2nd exp. (rank)": "> 4"},
      {"binder": "B14", "Competition Binding, 2nd exp. (rank)": 15},
      {"binder": "B15", "Competition Binding, 2nd exp. (rank)": 3},
      {"binder": "B16", "Competition Binding, 2nd exp. (rank)": 15}
    ]}
  ]
}
